Holding throughout (conditions): other: compound as substrate of HsPanK3; mean ± SEM; 2c and 2e fitted with substrate inhibition equation 1
Substrate in series [1]: CC(C)(CO)[C@@H](O)C(=O)NCc1csc(Cc2ccccc2)n1
Briefly: HsPanK kinetic assay (pyruvate kinase/lactic dehydrogenase coupled, NADH at 340 nm). It is filed as biochemical, human. As to the method:
(§1) The gene encoding the catalytic core domain of human PanK3 (amino acid residues 12–368) was synthesized and cloned into the pET28a(+) expression vector using the NdeI and BamHI restriction sites to produce an N-terminal His6-tagged protein (Bio Basic Inc.). The plasmid was transformed into E. coli BL21(DE3) cells, which were cultured in Terrific Broth (TB) medium containing 50 µg/mL kanamycin at 37°C. When the culture reached an optical density at 600 nm (OD600) of 0.6, protein expression was induced by adding 1.0 mM isopropyl β-D-thiogalactoside (IPTG), followed by incubation at 18°C for 17–18 h. The cells were then harvested and resuspended in lysis buffer (20 mM Tris-HCl, pH 7.5, 500 mM NaCl, 5 mM imidazole, 5% [vol/vol] glycerol) supplemented with 1 mM PMSF (phenylmethylsulfonyl fluoride) and lysozyme (5 mg/g of the cell pellet). The suspension was then sonicated on ice, and the resulting lysate was centrifuged twice at 54,000 × g for 30 min at 4°C.
(§2) The clarified supernatant was incubated with Ni-NTA resin (Cytiva) pre-equilibrated with lysis buffer containing 5 mM imidazole at 4°C. After binding, the resin was washed with lysis buffer containing 30 mM imidazole, then eluted with lysis buffer containing 250 mM imidazole. The eluted HsPanK3 protein was dialyzed against storage buffer (20 mM Tris-HCl, pH 7.5, 200 mM NaCl, 5% [vol/vol] glycerol) and concentrated. The purified protein was stored at −80°C. Protein purity was assessed using SDS-PAGE and deemed >50% (Fig. S4).
(§3) The enzyme assay was adapted from a previously described method ([103]), which links the production of ADP to the consumption of NADH through the enzymatic activities of pyruvate kinase and lactic dehydrogenase. Reactions were conducted in 96-well microtiter plates, and the decrease in NADH concentration was measured at 340 nm at 30 s intervals after incubation at 30°C. Each reaction mixture (200 µL) contained the desired compound (substrate) at variable concentrations (0–2,000 µM), ATP (1.5 mM), NADH (0.3 mM), phospho(enol)pyruvate (2.0 mM), MgCl2 (10 mM), KCl (20 mM), a commercial pyruvate kinase/lactic dehydrogenase mixture (12 units, Sigma-Aldrich), and pantothenate kinase (0.48 µM) in 50 mM Tris–HCl buffer (pH 7.6). The reaction was initiated with the addition of ATP. The kinetic parameters were determined by fitting the rate data into the Michaelis–Menten equation using GraphPad Prism 8.0 with nonlinear regressions. Data were collected from three independent experiments, each performed in triplicate to verify the trends and optimize the selected concentrations. The kinetic parameters were calculated from the most complete triplicate set of data, and errors represent SEM.

Substrate in series [2]: CC(C)(CO)[C@@H](O)C(=O)NCc1csc(-c2ccccc2)n1
The description is as above. It is filed as biochemical, human. On the procedure:
as §1, §2, §3

Substrate in series [3]: CCCCCc1csc(CNC(=O)[C@H](O)C(C)(C)CO)n1
The series is described as above. It is filed as biochemical, human. On the procedure:
as §1, §2, §3

Substrate in series [4]: CC(C)(CO)[C@@H](O)C(=O)NCc1cnc(-c2ccccc2)s1
Described as above. It is filed as biochemical, human. On the procedure:
as §1, §2, §3

Substrate in series [5]: CCCCc1csc(CNC(=O)[C@H](O)C(C)(C)CO)n1
The series is described as above. Format: biochemical, human. On the procedure:
as §1, §2, §3

Substrate in series [6]: CC(C)(CO)[C@@H](O)C(=O)NCc1nc(CCc2ccccc2)cs1
Described as above. It is filed as biochemical, human. As to the method: as §1, §2, §3

Substrate in series [7]: CC(C)(CO)[C@@H](O)C(=O)NCCC(=O)O
Nature of the series: purified protein, by the assay type.

The term Km denotes the substrate concentration at which the rate is half of its maximum. In general, kcat refers to the maximal rate divided by the concentration of active sites. In general, kcat/Km refers to the second-order rate constant that governs catalysis at low substrate concentration.

B1: HsPanK3 (Homo sapiens) (protein)
chain: PWFGMDIGGTLVKLSYFEPIDITAEEEQEEVESLKSIRKYLTSNVAYGSTGIRDVHLELKDLTLFGRRGNLHFIRFPTQDLPTFIQMGRDKNFSTLQTVLCATGGGAYKFEKDFRTIGNLHLHKLDELDCLVKGLLYIDSVSFNGQAECYYFANASEPERCQKMPFNLDDPYPLLVVNIGSGVSILAVHSKDNYKRVTGTSLGGGTFLGLCSLLTGCESFEEALEMASKGDSTQADKLVRDIYGGDYERFGLPGWAVASSFGNMIYKEKRESVSKEDLARATLVTITNNIGSVARMCAVNEKINRVVFVGNFLRVNTLSMKLLAYALDYWSKGQLKALFLEHEGYFGAVGALLGLPN
notes: catalytic core domain of human PanK3 (amino acid residues 12–368); made in house; host or cells: E. coli BL21(DE3)
Consider B1, for which the Km in series [1] is listed as 69 ± 6 µM; in series [2], 67 ± 10 µM; in series [3] it was 65 ± 7 µM; in series [4], 75 ± 11 µM; in series [5], 100 ± 7 µM; in series [6] it was 42 ± 4 µM. In series [7], the Michaelis-Menten constant (Km) is on record as 24 ± 4 µM. Moreover, the kcat in series [1] is 0.63 ± 0.02 s⁻¹; in series [2], 0.73 ± 0.05 s⁻¹; in series [3], 0.61 ± 0.02 s⁻¹; in series [4], 0.73 ± 0.02 s⁻¹; in series [5], 0.64 ± 0.01 s⁻¹; in series [6], 0.399 ± 0.005 s⁻¹. The kcat in series [7] stood at 0.64 s⁻¹. Besides, the kcat/Km came to 9300 ± 500 M⁻¹ s⁻¹ in series [1]; 12000 ± 1000 M⁻¹ s⁻¹ in series [2]; 10200 ± 900 M⁻¹ s⁻¹ in series [3]; 10700 ± 800 M⁻¹ s⁻¹ in series [4]; 6600 ± 400 M⁻¹ s⁻¹ in series [5]; 10000 ± 1000 M⁻¹ s⁻¹ in series [6]. For the same protein, the kcat/Km in series [7] is 30000 M⁻¹ s⁻¹.

For the origin of these results see paper PMC12406685, “Thiazole substitution of a labile amide bond—a new option toward antiplasmodial pantothenamide-mimics” (Antimicrobial Agents and Chemotherapy, 2025).
